Laboratory results published in patent US10239923B2, “Specific amyloid beta binding peptides and the use of same for treating and diagnosing alzheimer's dementia” (Forschungszentrum Juelich GmbH, priority 2015, dated 2019).
Square brackets hold non-standard residues; d marks the D form.

Legend:
[1] = biological target: T1, Aβ1-42 monomers versus Aβ1-42 oligomers and fibrils (biotinylated, D-enantiomeric, immobilized) (Homo sapiens, UniProt P05067); experiment: Monoclonal phage ELISA; assay type: binding; details: individual phage clones; species immobilized at 320 nM; absorption at 450 nm normalized with 6E10 control; higher = more monomer-specific
T1 construct: biotinylated, D-enantiomeric Aβ1-42 monomers
Text: The specificity of the peptide results from the difference in % of the absorption values for the target molecule or the bait (for example A beta monomer) and the normalized absorption values for the competitors (for example A beta oligomers and fibrils) in the monoclonal phage ELISA.
The absorption values then constitute the affinity of individual phage clones for a particular immobilized A beta species. Here, the specificity is not dependent on the strength of the affinity, but instead only on the difference of the affinities between the species. […] The terms “competitors” and “target molecule” or “bait” are defined as specified below.
A method for normalizing the obtained values should therefore be performed. From all absorption values of the individual phage clone in the monoclonal phage ELISA, the values of the phage antibodies tested for cross-reaction can be used as background. This occurs in accordance with the previously immobilized species. The signal values of the phage antibody from the reaction trays with immobilized Aβ1-42 oligomers for this purpose can be removed from the signal values of the individual phage clone from the reaction trays with immobilized Aβ1-42 oligomers. A similar process is then carried out for Aβ1-42 monomers. In this way, a possible background signal of the phage antibody can initially be calculated from the signals of the individual phage clone. […] Only in this way is an equal interpretation of the results particularly in respect of the assessment of the specificity of the individual phage clone possible (see FIG. 2).
The affinity of individual phage clones with respect to the target molecule and the competitors was examined by means of ELISA. For this purpose, all three species were immobilized in biotinylated form on a polystyrene surface at streptavidin bound thereon. Since, during the panning rounds, oligomers and fibrils were added at the same time as competitors, these two species were immobilized in the monoclonal phage ELISA, likewise mixed. […] The streptavidin-coated microtiter plates were pre-washed as specified by the manufacturer. […] For immobilization, 100 μl were used per reaction tray and were incubated for 15 minutes at room temperature. After having washed the entire plate(s) twice with 150 μl 1×TBS per reaction tray, a blocking step with 150 μl 1×TBS/0.1% (v/v) Tween-20/1% (w/v) BSA was performed for an hour at room temperature. Three washing steps with 150 μl 1×TBS/0.1% (v/v) Tween-20 then followed per reaction tray. The amplified individual phage clones were mixed 1:1 with 1× TBS/1% (w/v) BSA. The antibody 6E10 was diluted 1:10,000 in 1×TBS/0.1% (v/v) Tween-20. […] After washing five times with 150 μl 1×TBS/0.1% (v/v) Tween-20 per reaction tray, 200 μl 1×TBS/0.1% (v/v) Tween-20 were placed in each reaction tray, and the plate(s) incubated for one hour at room temperature. The solutions were removed and replaced as follows: In all reaction trays that had been incubated previously with individual phage clone dilutions or the batch without phages, 100 μl of a phage antibody diluted 1:5,000 in 1×TBS/0.1% (v/v) Tween-20 were now added. The enzyme horseradish peroxidase (HRP) was coupled to this antibody and later served for the conversion of a substrate (TMB). […] At the same time, 100 μl of a second antibody diluted 1:1,000 in 1×TBS/0.1% (v/v) Tween-20 were now added to all reaction trays that had been previously incubated with the dilution of the 6E10 antibody, said second antibody being able to identify and bind to the 6E10 antibody originating from mice. This antibody is also HRP-coupled and thus allows a quantification of the binding of the first antibody to the immobilized target molecules or the plastics surface of the reaction tray. After one hour of incubation at room temperature, the plate(s) was/were washed 10 times with 150 μl 1×TBS/0.1% (v/v) Tween-20 per reaction tray. The signal was detected by adding the substrate 3,3′,5,5′-tetramethylbenzidine (TMB). […]

Aβ1-42 = Aβ1-42 (Homo sapiens, UniProt P05067); experiment: ThT test, modulation of Aβ1-42 aggregation; assay type: biochemical; details: 10 μM Aβ1-42, equimolar peptide, versus Aβ1-42 alone = 100%
Text: FIG. 3: The average relative fluorescence from seven independently performed ThT experiments with standard deviation is shown. The dye Thioflavin T (ThT) binds to β-pleated sheet structures in the batch and thereupon changes its fluorescence spectrum. […] The time in which the logarithmic rise of the fluorescence signal transitioned into a stationary phase was set to 100%.

transgenic AD mice = details: oral administration in drinking water; cited from earlier work
[2] = biological target: Aβ1-42 species of different size (Homo sapiens, UniProt P05067); experiment: Density gradient centrifugation, tris-tricine SDS gel and silver staining of Aβ1-42 species; assay type: biochemical; details: 80 μM Aβ1-42 pre-incubated […], 40 μM peptide for 40 minutes
Protocol: The batch was then incubated either with or without addition of peptide for a further 40 minutes and was then placed on an iodixanol density gradient. The gradient was then centrifuged, wherein the contents of the sample (Aβ1-42 species of different size) diffused within the gradient in accordance with their size and shape. The gradient was fractionated after centrifugation into 15 fractions (1-15), and the first 14 individual fractions were applied to a tris-tricine SDS gel. The contents per fraction were separated electrophoretically. […] The batch was then incubated either without (A) or with addition of different concentrations of Mosd1 (B=10 μM Mossd1; C=20 μM Mosd1; D=40 μM Mosd1; E=80 μM Mosd1) for a further 40 minutes and was then placed on an iodixanol density gradient. The gradient was then centrifuged, wherein the contents of the sample (Aβ1-42 species of different size) diffused within the gradient in accordance with their size and shape. The gradient was fractionated after centrifugation (1-15), and the individual fractions were applied to a tris-tricine SDS gel. The contents per fraction were separated electrophoretically.

PC-12 cells = experiment: MTT reduction test, Aβ1-42-induced cell toxicity; assay type: cell-based; details: 0.1% TritonX-100, positive control for cell toxicity
Protocol: The samples were placed in the culture medium of the cells and were incubated over 24 hours with the cells at 37° C. The viability of the cells was then determined on the basis of an MTT test. Here, a metabolic reactant was supplied to the cells, which reactant could be converted by metabolically active cells (living cells). Formazan crystals are the product of this conversion and can be dissolved. The coloration of the medium after solubilization corresponds to the conversion rate of the reactant and therefore the viability of the cells. Untreated cells (medium, white chequered pattern) served as living control, and the proportion of vital cells was defined as 100%. The values of the other batches were normalized to this value.

T1 sequence (P05067 672-713): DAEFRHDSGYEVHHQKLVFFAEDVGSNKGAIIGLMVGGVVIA
Aβ1-42, sequence (P05067 672-713 limits assumed): as the sequence (P05067 672-713) above
Aβ1-42 species of different size, sequence (P05067 672-713 limits assumed): as the sequence (P05067 672-713) above

Row | Substance | Difference in signal strength between Aβ1-42 monomers (100%) and Aβ1-42 oligomers and fibrils [1] | relative ThT fluorescence (formation of β-pleated sheet structures) (Aβ1-42) | further results
1 | HNWFYWTTEPYD (H-[dH][dN][dW][dF][dY][dW][dT][dT][dE][dP][dY][dD]-NH2; SMILES C[C@H](O)[C@@H](NC(=O)[C@@H](Cc1c[nH]c2ccccc12)NC(=O)[C@@H](Cc1ccc(O)cc1)NC(=O)[C@@H](Cc1ccccc1)NC(=O)[C@@H](Cc1c[nH]c2ccccc12)NC(=O)[C@@H](CC(N)=O)NC(=O)[C@H](N)Cc1c[nH]cn1)C(=O)N[C@@H](C(=O)N[C@H](CCC(=O)O)C(=O)N1CCC[C@@H]1C(=O)N[C@H](Cc1ccc(O)cc1)C(=O)N[C@H](CC(=O)O)C(N)=O)[C@H](C)O) [Mosd4] | 69.154% | only a very small influence | –
2 | rprtrlhthrnr [Mosd D3] | – | – | cognitive capabilities (transgenic AD mice): significantly improved cognitive capabilities; plaques (transgenic AD mice): much fewer plaques
3 | GTMLKFSGMNLT (H-G[dT][dM][dL][dK][dF][dS]G[dM][dN][dL][dT]-NH2; SMILES CSCC[C@@H](NC(=O)CNC(=O)[C@@H](CO)NC(=O)[C@@H](Cc1ccccc1)NC(=O)[C@@H](CCCCN)NC(=O)[C@@H](CC(C)C)NC(=O)[C@@H](CCSC)NC(=O)[C@H](NC(=O)CN)[C@H](C)O)C(=O)N[C@H](CC(N)=O)C(=O)N[C@H](CC(C)C)C(=O)N[C@@H](C(N)=O)[C@H](C)O) [Mosd3] | 59.955% | increase the ThT fluorescence | oligomeric Aβ1-42 species (fractions 4-7) [2]: reduce; proportions of high-molecular Aβ1-42 species (fractions 10-14) [2]: increase
4 | TritonX-100 [reference compound] | – | – | amount of viable cells (untreated cells = 100%) (PC-12 cells): 1.5%
5 | DWSSRVYRDPQT (H-[dD][dW][dS][dS][dR][dV][dY][dR][dD][dP][dQ][dT]-NH2; SMILES CC(C)[C@@H](NC(=O)[C@@H](CCCNC(=N)N)NC(=O)[C@@H](CO)NC(=O)[C@@H](CO)NC(=O)[C@@H](Cc1c[nH]c2ccccc12)NC(=O)[C@H](N)CC(=O)O)C(=O)N[C@H](Cc1ccc(O)cc1)C(=O)N[C@H](CCCNC(=N)N)C(=O)N[C@H](CC(=O)O)C(=O)N1CCC[C@@H]1C(=O)N[C@H](CCC(N)=O)C(=O)N[C@@H](C(N)=O)[C@H](C)O) [Mosd16] | 52.387% | – | –
6 | HNWSWEWWYNPN (H-[dH][dN][dW][dS][dW][dE][dW][dW][dY][dN][dP][dN]-NH2; SMILES NC(=O)C[C@@H](NC(=O)[C@H]1CCCN1C(=O)[C@@H](CC(N)=O)NC(=O)[C@@H](Cc1ccc(O)cc1)NC(=O)[C@@H](Cc1c[nH]c2ccccc12)NC(=O)[C@@H](Cc1c[nH]c2ccccc12)NC(=O)[C@@H](CCC(=O)O)NC(=O)[C@@H](Cc1c[nH]c2ccccc12)NC(=O)[C@@H](CO)NC(=O)[C@@H](Cc1c[nH]c2ccccc12)NC(=O)[C@@H](CC(N)=O)NC(=O)[C@H](N)Cc1c[nH]cn1)C(N)=O) [Mosd5] | 62.729% | – | –
7 | GQWDFRQWWQPC (H-G[dQ][dW][dD][dF][dR][dQ][dW][dW][dQ][dP][dC]-NH2; SMILES N=C(N)NCCC[C@@H](NC(=O)[C@@H](Cc1ccccc1)NC(=O)[C@@H](CC(=O)O)NC(=O)[C@@H](Cc1c[nH]c2ccccc12)NC(=O)[C@@H](CCC(N)=O)NC(=O)CN)C(=O)N[C@H](CCC(N)=O)C(=O)N[C@H](Cc1c[nH]c2ccccc12)C(=O)N[C@H](Cc1c[nH]c2ccccc12)C(=O)N[C@H](CCC(N)=O)C(=O)N1CCC[C@@H]1C(=O)N[C@H](CS)C(N)=O) [Mosd15] | 59.985% | – | –
8 | VHWDFRQWWQQS (H-[dV][dH][dW][dD][dF][dR][dQ][dW][dW][dQ][dQ][dS]-NH2; SMILES CC(C)[C@@H](N)C(=O)N[C@H](Cc1c[nH]cn1)C(=O)N[C@H](Cc1c[nH]c2ccccc12)C(=O)N[C@H](CC(=O)O)C(=O)N[C@H](Cc1ccccc1)C(=O)N[C@H](CCCNC(=N)N)C(=O)N[C@H](CCC(N)=O)C(=O)N[C@H](Cc1c[nH]c2ccccc12)C(=O)N[C@H](Cc1c[nH]c2ccccc12)C(=O)N[C@H](CCC(N)=O)C(=O)N[C@H](CCC(N)=O)C(=O)N[C@H](CO)C(N)=O) [Mosd12] | 59.012% | – | –
9 | HTWTTYDYVWRL (H-[dH][dT][dW][dT][dT][dY][dD][dY][dV][dW][dR][dL]-NH2; SMILES CC(C)C[C@@H](NC(=O)[C@@H](CCCNC(=N)N)NC(=O)[C@@H](Cc1c[nH]c2ccccc12)NC(=O)[C@H](NC(=O)[C@@H](Cc1ccc(O)cc1)NC(=O)[C@@H](CC(=O)O)NC(=O)[C@@H](Cc1ccc(O)cc1)NC(=O)[C@H](NC(=O)[C@H](NC(=O)[C@@H](Cc1c[nH]c2ccccc12)NC(=O)[C@H](NC(=O)[C@H](N)Cc1c[nH]cn1)[C@H](C)O)[C@H](C)O)[C@H](C)O)C(C)C)C(N)=O) [Mosd2] | 67.145% | increase the ThT fluorescence | oligomeric Aβ1-42 species (fractions 4-7) [2]: reduce; proportions of high-molecular Aβ1-42 species (fractions 10-14) [2]: increase
